Assays:
[1] = molecular target: recombinant human CD73 protein (ecto-5'-nucleotidase), expressed by the applicant, C-terminal 6x His tag (human) (UniProt P21589); experiment: SPR, Biacore T200, antibody captured, human CD73 injected, 25 °C, 1:1 fit
CD73 on A549 cells = CD73 on A549 cells (UniProt P21589); experiment: cell-based or functional assay
[2] = molecular target: recombinant human CD73 protein (ecto-5'-nucleotidase), expressed by the applicant, C-terminal 6x His tag (human) (UniProt P21589); experiment: cell-based or functional assay

Kd [1]: 107 pM | koff [1]: 6.9e-05 s⁻¹ | kon [1]: 647000 M⁻¹ s⁻¹ | EC50 (µg/mL), Cell level (A549 cells), inhibition of the enzyme activity of CD73 (CD73 on A549 cells): 0.113 µg/mL | EC50 (µg/mL), Biochemical level, inhibition of the enzyme activity of CD73 [2]: 0.188 µg/mL
Substance: MEDI-9447 (antibody)
